Experiments:
HeLa Kyoto [1] = experiment: solubility in G1/S (NP-40 vs SDS abundance) (log2 ratio); higher = more soluble; conditions: cell cycle stage: G1/S
HeLa Kyoto [2] = experiment: melting temperature (median over replicates), in situ; higher = more thermally stable
HeLa Kyoto [3] = experiment: solubility change mitosis vs G1/S (difference of NP-40 vs SDS log2 ratios) (log2 ratio difference); higher = more soluble in mitosis
HeLa Kyoto [4] = experiment: thermal stability score vs G1/S (z-score of summed log2 fold changes over temperatures); higher = more thermally stable than in G1/S
[5] = cell cycle stage: early G1 (4.5 h after nocodazole release)
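Wherever melting temperature (median over replicates), in situ is given: HeLa Kyoto cells synchronized by double thymidine or nocodazole block, proteins quantified by TMT10plex mass spectrometry, three independent biological replicates.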
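Wherever solubility change mitosis vs G1/S (difference of NP-40 vs SDS log2 ratios) is given: synchronized HeLa Kyoto cells (double thymidine block for G1/S, nocodazole release for mitosis), protein amounts in NP-40 versus SDS lysates quantified by mass spectrometry, three biological replicates.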
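Wherever solubility in G1/S (NP-40 vs SDS abundance) is given: HeLa Kyoto cells arrested at G1/S by double thymidine block, proteins quantified by TMT10plex mass spectrometry in mild NP-40 versus SDS extracts, three biological replicates.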
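Wherever thermal stability score vs G1/S (z-score of summed log2 fold changes over temperatures) is given: synchronized HeLa Kyoto cells, proteins quantified by TMT10plex mass spectrometry, three biological replicates, mitosis taken 0.5 h after nocodazole release, G1/S directly after double thymidine block.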

Chain of ASNA1 (chain, as listed by the source): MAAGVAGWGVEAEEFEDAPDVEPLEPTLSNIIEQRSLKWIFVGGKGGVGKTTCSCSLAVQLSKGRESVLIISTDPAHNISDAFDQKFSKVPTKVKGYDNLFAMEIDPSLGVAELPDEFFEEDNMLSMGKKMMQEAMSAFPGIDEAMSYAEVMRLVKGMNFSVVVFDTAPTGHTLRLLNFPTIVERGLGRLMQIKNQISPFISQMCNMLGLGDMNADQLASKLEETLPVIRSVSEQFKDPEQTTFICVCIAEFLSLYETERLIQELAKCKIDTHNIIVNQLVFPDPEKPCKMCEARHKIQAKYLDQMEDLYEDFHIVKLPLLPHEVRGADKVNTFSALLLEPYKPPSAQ

“MKGLYFQQSSTDEEITFVFQEKEDLPVTEDNFVKLQVKACALSQINTKLLAEMKMKKDLFPVGREIAGIVLDVGSKVSFFQPDDEVVGILPLDSEDPGLCEVVRVHEHYLVHKPEKVTWTEAAGSIRDGVRAYTALHYLSHLSPGKSVLIMDGASAFGTIAIQLAHHRGAKVISTACSLEDKQCLERFRPPIARVIDVSNGKVHVAESCLEETGGLGVDIVLDAGVRLYSKDDEPAVKLQLLPHKHDIITLLGVGGHWVTTEENLQLDPPDSHCLFLKGATLAFLNDEVWNLSNVQQGKYLCILKDVMEKLSTGVFRPQLDEPIPLYEAKVSMEAVQKNQGRKKQVVQF [CRYZL1]” was tested, and the “solubility in G1/S (log2)” value (HeLa Kyoto [1]) was 0.11, the melting temperature (HeLa Kyoto [2]; cell cycle stage: G1/S) was 57 °C and the melting temperature (HeLa Kyoto [2]; cell cycle stage: mitosis) was 56.9 °C. The “solubility change mitosis (log2)” value (HeLa Kyoto [3]) was -0.249, the thermal stability score (HeLa Kyoto [4]; [5]) was 0.0481 and the thermal stability score (HeLa Kyoto [4]; cell cycle stage: mitosis) was -1.74.
“MPAPTQLFFPLIRNCELSRIYGTACYCHHKHLCCSSSYIPQSRLRYTPHPAYATFCRPKENWWQYTQGRRYASTPQKFYLTPPQVNSILKANEYSFKVPEFDGKNVSSILGFDSNQLPANAPIEDRRSAATCLQTRGMLLGVFDGHAGCACSQAVSERLFYYIAVSLLPHETLLEIENAVESGRALLPILQWHKHPNDYFSKEASKLYFNSLRTYWQELIDLNTGESTDIDVKEALINAFKRLDNDISLEAQVGDPNSFLNYLVLRVAFSGATACVAHVDGVDLHVANTGDSRAMLGVQEEDGSWSAVTLSNDHNAQNERELERLKLEHPKSEAKSVVKQDRLLGLLMPFRAFGDVKFKWSIDLQKRVIESGPDQLNDNEYTKFIPPNYHTPPYLTAEPEVTYHRLRPQDKFLVLATDGLWETMHRQDVVRIVGEYLTGMHHQQPIAVGGYKVTLGQMHGLLTERRTKMSSVFEDQNAATHLIRHAVGNNEFGTVDHERLSKMLSLPEELARMYRDDITIIVVQFNSHVVGAYQNQE [PDP1]” was tested, and the “solubility in G1/S (log2)” value (HeLa Kyoto [1]) was 0.103, the melting temperature (HeLa Kyoto [2]; cell cycle stage: G1/S) was 52.7 °C and the melting temperature (HeLa Kyoto [2]; cell cycle stage: mitosis) was 51.6 °C. For the same substance, the “solubility change mitosis (log2)” value (HeLa Kyoto [3]) was -0.0758, the thermal stability score (HeLa Kyoto [4]; [5]) was 0.767 and the thermal stability score (HeLa Kyoto [4]; cell cycle stage: mitosis) was 1.07.
For “MMAAVPPGLEPWNRVRIPKAGNRSAVTVQNPGAALDLCIAAVIKECHLVILSLKSQTLDAETDVLCAVLYSNHNRMGRHKPHLALKQVEQCLKRLKNMNLEGSIQDLFELFSSNENQPLTTKVCVVPSQPVVELVLMKVLGACKLLLRLLDCCCKTFLLTVKHLGLQEFIILNLVMVGLVSRLWVLYKGVLKRLILLYEPLFGLLQEVARIQPMPYFKDFTFPSDITEFLGQPYFEAFKKKMPIAFAAKGINKLLNKLFLINEQSPRASEETLLGISKKAKQMKINVQNNVDLGQPVKNKRVFKEESSEFDVRAFCNQLKHKATQETSFDFKCSQSRLKTTKYSSQKVIGTPHAKSFVQRFREAESFTQLSEEIQMAVVWCRSKKLKAQAIFLGNKLLKSNRLKHLEAQGTSLPKKLECIKTSICNHLLRGSGIKTSKHHLRQRRSQNKFLRRQRKPQRKLQSTLLREIQQFSQGTRKSATDTSAKWRLSHCTVHRTDLYPNSKQLLNSGVSMPVIQTKEKMIHENLRGIHENETDSWTVMQINKNSTSGTIKETDDIDDIFALMGV [NEPRO]”, the “solubility in G1/S (log2)” value (HeLa Kyoto [1]) was -0.993, the melting temperature (HeLa Kyoto [2]; cell cycle stage: G1/S) was 49.7 °C and the melting temperature (HeLa Kyoto [2]; cell cycle stage: mitosis) was 50.3 °C. For the same substance, the “solubility change mitosis (log2)” value (HeLa Kyoto [3]) was 0.574, the thermal stability score (HeLa Kyoto [4]; [5]) was -0.703 and the thermal stability score (HeLa Kyoto [4]; cell cycle stage: mitosis) was -1.65.
With “MATSVGHRCLGLLHGVAPWRSSLHPCEITALSQSLQPLRKLPFRAFRTDARKIHTAPARTMFLLRPLPILLVTGGGYAGYRQYEKYRERELEKLGLEIPPKLAGHWEVALYKSVPTRLLSRAWGRLNQVELPHWLRRPVYSLYIWTFGVNMKEAAVEDLHHYRNLSEFFRRKLKPQARPVCGLHSVISPSDGRILNFGQVKNCEVEQVKGVTYSLESFLGPRMCTEDLPFPPAASCDSFKNQLVTREGNELYHCVIYLAPGDYHCFHSPTDWTVSHRRHFPGSLMSVNPGMARWIKELFCHNERVVLTGDWKHGFFSLTAVGATNVGSIRIYFDRDLHTNSPRHSKGSYNDFSFVTHTNREGVPMRKGEHLGEFNLGSTIVLIFEAPKDFNFQLKTGQKIRFGEALGSL [PISD]” the “solubility in G1/S (log2)” value (HeLa Kyoto [1]) was -0.127, the melting temperature (HeLa Kyoto [2]; cell cycle stage: G1/S) was 51.7 °C and the melting temperature (HeLa Kyoto [2]; cell cycle stage: mitosis) was 50.9 °C. For the same substance, the “solubility change mitosis (log2)” value (HeLa Kyoto [3]) was -0.00593, the thermal stability score (HeLa Kyoto [4]; [5]) was -1.35 and the thermal stability score (HeLa Kyoto [4]; cell cycle stage: mitosis) was -0.739.
“MEVKPPPGRPQPDSGRRRRRRGEEGHDPKEPEQLRKLFIGGLSFETTDDSLREHFEKWGTLTDCVVMRDPQTKRSRGFGFVTYSCVEEVDAAMCARPHKVDGRVVEPKRAVSREDSVKPGAHLTVKKIFVGGIKEDTEEYNLRDYFEKYGKIETIEVMEDRQSGKKRGFAFVTFDDHDTVDKIVVQKYHTINGHNCEVKKALSKQEMQSAGSQRGRGGGSGNFMGRGGNFGGGGGNFGRGGNFGGRGGYGGGGGGSRGSYGGGDGGYNGFGGDGGNYGGGPGYSSRGGYGGGGPGYGNQGGGYGGGGGYDGYNEGGNFGGGNYGGGGNYNDFGNYSGQQQSNYGPMKGGSFGGRSSGSPYGGGYGSGGGSGGYGSRRF [HNRNPA3]” was tested, and the “solubility in G1/S (log2)” value (HeLa Kyoto [1]) was -0.252, the melting temperature (HeLa Kyoto [2]; cell cycle stage: G1/S) was 47.8 °C and the melting temperature (HeLa Kyoto [2]; cell cycle stage: mitosis) was 49.3 °C. The “solubility change mitosis (log2)” value (HeLa Kyoto [3]) was 0.411, the thermal stability score (HeLa Kyoto [4]; [5]) was 2.6 and the thermal stability score (HeLa Kyoto [4]; cell cycle stage: mitosis) was 4.71.
“MAGLGHPAAFGRATHAVVRALPESLGQHALRSAKGEEVDVARAERQHQLYVGVLGSKLGLQVVELPADESLPDCVFVEDVAVVCEETALITRPGAPSRRKEVDMMKEALEKLQLNIVEMKDENATLDGGDVLFTGREFFVGLSKRTNQRGAEILADTFKDYAVSTVPVADGLHLKSFCSMAGPNLIAIGSSESAQKALKIMQQMSDHRYDKLTVPDDIAANCIYLNIPNKGHVLLHRTPEEYPESAKVYEKLKDHMLIPVSMSELEKVDGLLTCCSVLINKKVDS [DDAH1]” was tested, and the “solubility in G1/S (log2)” value (HeLa Kyoto [1]) was 0.157, the melting temperature (HeLa Kyoto [2]; cell cycle stage: G1/S) was 55.3 °C and the melting temperature (HeLa Kyoto [2]; cell cycle stage: mitosis) was 56.1 °C. The “solubility change mitosis (log2)” value (HeLa Kyoto [3]) was 0.0143, the thermal stability score (HeLa Kyoto [4]; [5]) was 0.276 and the thermal stability score (HeLa Kyoto [4]; cell cycle stage: mitosis) was -0.764.
“MSQTAMSETYDFLFKFLVIGNAGTGKSCLLHQFIEKKFKDDSNHTIGVEFGSKIINVGGKYVKLQIWDTAGQERFRSVTRSYYRGAAGALLVYDITSRETYNALTNWLTDARMLASQNIVIILCGNKKDLDADREVTFLEASRFAQENELMFLETSALTGENVEEAFVQCARKILNKIESGELDPERMGSGIQYGDAALRQLRSPRRAQAPNAQECGC [RAB4A]” was tested, and the “solubility in G1/S (log2)” value (HeLa Kyoto [1]) was 0.0401, the melting temperature (HeLa Kyoto [2]; cell cycle stage: G1/S) was 59.5 °C and the melting temperature (HeLa Kyoto [2]; cell cycle stage: mitosis) was 57.6 °C. For the same substance, the “solubility change mitosis (log2)” value (HeLa Kyoto [3]) was -0.0763, the thermal stability score (HeLa Kyoto [4]; [5]) was -3.03 and the thermal stability score (HeLa Kyoto [4]; cell cycle stage: mitosis) was -3.68.
In the case of “MGCAEGKAVAAAAPTELQTKGKNGDGRRRSAKDHHPGKTLPENPAGFTSTATADSRALLQAYIDGHSVVIFSRSTCTRCTEVKKLFKSLCVPYFVLELDQTEDGRALEGTLSELAAETDLPVVFVKQRKIGGHGPTLKAYQEGRLQKLLKMNGPEDLPKSYDYDLIIIGGGSGGLAAAKEAAQYGKKVMVLDFVTPTPLGTRWGLGGTCVNVGCIPKKLMHQAALLGQALQDSRNYGWKVEETVKHDWDRMIEAVQNHIGSLNWGYRVALREKKVVYENAYGQFIGPHRIKATNNKGKEKIYSAERFLIATGERPRYLGIPGDKEYCISSDDLFSLPYCPGKTLVVGASYVALECAGFLAGIGLDVTVMVRSILLRGFDQDMANKIGEHMEEHGIKFIRQFVPIKVEQIEAGTPGRLRVVAQSTNSEEIIEGEYNTVMLAIGRDACTRKIGLETVGVKINEKTGKIPVTDEEQTNVPYIYAIGDILEDKVELTPVAIQAGRLLAQRLYAGSTVKCDYENVPTTVFTPLEYGACGLSEEKAVEKFGEENIEVYHSYFWPLEWTIPSRDNNKCYAKIICNTKDNERVVGFHVLGPNAGEVTQGFAAALKCGLTKKQLDSTIGIHPVCAEVFTTLSVTKRSGASILQAGCUG [TXNRD1]”, the “solubility in G1/S (log2)” value (HeLa Kyoto [1]) is reported as 0.0191, the melting temperature (HeLa Kyoto [2]; cell cycle stage: G1/S) is reported as 52 °C and the melting temperature (HeLa Kyoto [2]; cell cycle stage: mitosis) is reported as 51.9 °C. For the same substance, the “solubility change mitosis (log2)” value (HeLa Kyoto [3]) was -0.101, the thermal stability score (HeLa Kyoto [4]; [5]) was 1.37 and the thermal stability score (HeLa Kyoto [4]; cell cycle stage: mitosis) was -1.27.
In the case of “MLGGSLGSRLLRGVGGSHGRFGARGVREGGAAMAAGESMAQRMVWVDLEMTGLDIEKDQIIEMACLITDSDLNILAEGPNLIIKQPDELLDSMSDWCKEHHGKSGLTKAVKESTITLQQAEYEFLSFVRQQTPPGLCPLAGNSVHEDKKFLDKYMPQFMKHLHYRIIDVSTVKELCRRWYPEEYEFAPKKAASHRALDDISESIKELQFYRNNIFKKKIDEKKRKIIENGENEKTVS [REXO2]”, the “solubility in G1/S (log2)” value (HeLa Kyoto [1]) is reported as 0.239, the melting temperature (HeLa Kyoto [2]; cell cycle stage: G1/S) is reported as 56.8 °C and the melting temperature (HeLa Kyoto [2]; cell cycle stage: mitosis) is reported as 56.5 °C. The “solubility change mitosis (log2)” value (HeLa Kyoto [3]) was 0.144, the thermal stability score (HeLa Kyoto [4]; [5]) was -2.25 and the thermal stability score (HeLa Kyoto [4]; cell cycle stage: mitosis) was -3.59.
In the case of ASNA1, the “solubility in G1/S (log2)” value (HeLa Kyoto [1]) is reported as 0.349, the melting temperature (HeLa Kyoto [2]; cell cycle stage: G1/S) is reported as 53.4 °C and the melting temperature (HeLa Kyoto [2]; cell cycle stage: mitosis) is reported as 54.6 °C. The “solubility change mitosis (log2)” value (HeLa Kyoto [3]) was -0.258, the thermal stability score (HeLa Kyoto [4]; [5]) was 0.0219 and the thermal stability score (HeLa Kyoto [4]; cell cycle stage: mitosis) was 1.19.
For “MRAVLAREMDGRRVLGRFWSGWRRGLGVRPVPEDAGFGTEARHQRQPRGSCQRSGPLGDQPFAGLLPKNLSREELVDALRAAVVDRKGPLVTLNKPQGLPVTGKPGELTLFSVLPELSQSLGLREQELQVVRASGKESSGLVLLSSCPQTASRLQKYFTHARRAQRPTATYCAVTDGIPAASEGKIQAALKLEHIDGVNLTVPVKAPSRKDILEGVKKTLSHFRVVATGSGCALVQLQPLTVFSSQLQVHMVLQLCPVLGDHMYSARVGTVLGQRFLLPAENNKPQRQVLDEALLRRLHLTPSQAAQLPLHLHLHRLLLPGTRARDTPVELLAPLPPYFSRTLQCLGLRLQ [RPUSD3]”, the “solubility in G1/S (log2)” value (HeLa Kyoto [1]) was 0.193, the melting temperature (HeLa Kyoto [2]; cell cycle stage: G1/S) was 50.1 °C and the melting temperature (HeLa Kyoto [2]; cell cycle stage: mitosis) was 51.2 °C. The “solubility change mitosis (log2)” value (HeLa Kyoto [3]) was 0.0294, the thermal stability score (HeLa Kyoto [4]; [5]) was -1.94 and the thermal stability score (HeLa Kyoto [4]; cell cycle stage: mitosis) was 0.774.

From the supplement of paper PMC5998384
